One series deals with Psl production in PAO1. Nature of the series: Psl production by anti-Psl immunodot blotting. The class given is cell-based, P. aeruginosa. As to conditions: 5 μM C12-HSL added to culture medium; FIG. 3D. As to the method: To examine Psl production, exopolysaccharide Psl extracts were collected from overnight cultures equivalent to approximately 10 OD600 and examined by immunodot blotting using an anti-Psi antibody. For the effect of C12-HSL on Psl production, 5 μM C12-HSL was added to the medium after inoculation. The software Image Lab™ was used to quantify the immunodot blotting data.
LasI directs the synthesis of the QS signal molecular, N-(3-oxododecanoyl)-L-homoserine lactone (C12-HSL). Thus, whether C12-HSL supplement could affect Psl production in PAO1 was examined. […] C12-HSL is usually associated with the transcriptional regulator LasR to active their target genes.

Series [1] concerns psl transcription in PAO1. The series is described as follows: psl transcription detected by psl::gfp reporter plasmid. The class given is cell-based, P. aeruginosa. As to conditions: 5 μM C12-HSL added to PAO1 culture; FIG. 3E.
For a further series, the system named is ΔpaaP strain. Nature of the series: MIC by E test strips. The class given is cell-based, P. aeruginosa. The note with it: E test strip, 37° C. overnight; FIG. 9A. As to the method:
The MIC (minimum inhibition concentration) of ΔpaaP strain to tobramycin and ciprofloxacin, two antibiotics commonly used to treat P. aeruginosa infections, was tested by E test strips. Overnight culture was diluted to OD600˜0.1, and spread on the plate. The E test strip was put onto the plate, cultivated at 37° C. overnight, and the minimum inhibition concentration was recorded according to the E test strip.

The target of series [2] is T1, (2S,3R)-3-Amino-2-hydroxy-5-methylhexanoyl-Val-Val-Asp (Amastatin).
T1 chain: VVD

The next series has as its system MJK8. The series is described as follows: Dispersal of bacterial aggregates in liquid culture, OD600 read. The note with it: 100 nM PslG, Jensen's or LBNS medium, 3 h and 6 h; FIG. 13A, 13B. It counts as cell-based, P. aeruginosa. Here is the method: (§1) PAO1-derived rugose small colony variant (RSCV) strain MJK8 was grown in LBNS at 37° C. 200 rpm overnight. This overnight culture was washed and then inoculated into Jensen's medium or in LBNS medium at 1:50 with or without 100 nM of PslG. Bacterial growth was determined by taking OD600 read at 3 h and 6 h post inoculation. P. stutzeri strain A1501 was firstly grown in LD medium at 30° C. 200 rpm overnight. The overnight culture was washed and inoculated into KLG^+ medium at 1:50 with or without 100 nM of PslG. OD600 was taken at 3 h, 6 h and 30 h post inoculation to monitor the bacterial growth. FIGS. 13A-13C show the comparison of OD600 read with or without PslG treatment of: MJK8 growth in chemically defined Jensen's medium (FIG. 13A); MJK8 growth in LBNS rich medium (FIG. 13B); A1501 growth in KLG^+ medium (FIG. 13C).

For the next series, the system named is A1501. Described as above. It counts as cell-based, P. stutzeri. As to conditions: 100 nM PslG, KLG+ medium, 3 h, 6 h, 30 h; FIG. 13C. As to the method:
as §1

Another series concerns PAO1 biofilms. The series is described as follows: Dispersal of air-liquid interface biofilms and live cell counting by CFU. The class given is cell-based, P. aeruginosa. As to conditions: 50 nM PslG, 30° C., 1 h, versus tissue homogenate and control; FIG. 14. Here is the method:
The PAO1 strain was inoculated on LBNS solid medium plates and overnight incubated at 37° C. Then monoclones of the PAO1, collected from the LBNS solid medium plates, were inoculated in LBNS liquid medium and incubated at 37° C. overnight with shaking at 200 rpm. The culture was washed with PBS for once. Then the culture was inoculated in Jensen's liquid medium at 1:100 (V:V), and incubated at 30° C. in a 24-pore plate. Biofilms were formed at the air-liquid interface. The liquid under the biofilms was removed by a pipettor. The biofilms were washed with PBS for twice so as to remove free bacterial cells that are not embedded in the biofilms. The biofilms were added in PBS for subsequent treatment. For a tissue homogenate treatment group, a sterile glass homogenizer (1 mL) was used to homogenize the biofilms for three times. For PslG treatment group, PslG was added to the biofilms, and the final concentration of PslG is 50 nM. The biofilms were incubated at 30° C. for 1 h. For a control group, no treatment was performed on the biofilms at this stage. Afterwards, the biofilm samples from the tissue homogenate treatment group, the PslG treatment group, and the control group were homogenized using a pipette and then votexed. The biofilm samples were diluted in PBS at 1:10. […] The numbers of live cells in the biofilm samples was determined based on the CFUs.

Series [3] is described as follows: In vitro treatment of Psl extract, elution profile on Sephadex G-50 column. It counts as biochemical, P. aeruginosa. As to conditions: exogenous-supplied PslG in vitro; FIG. 8B. Here is the method: The Psl extract from biofilm was prepared, fractionated on a Sephadex G-50 column, and irrigated with water at 0.67 ml/min. The total carbohydrate in each fraction (5 ml) was assayed colorimetrically for aldose. Briefly, 200 μl of each fraction was mixed with 100 μl 5% phenol and 500 μl concentrated sulfuric acid, reacted at room temperature for 30 minutes, and measured (OD492).
To confirm, the Psl extracted from PAO1 biofilms was treated with exogenous-supplied PslG in vitro.

The values below come from patent US20190083619A1, “METHODS AND COMPOSITIONS FOR REMOVING, REDUCING, DISPERSING, DISRUPTING OR ERADICATING BIOFILMS AND DETERMINING THE NUMBER OF BACTERIAL POPULATION IN BIOFILM OR A CULTURE CONTAINING BACTERIAL AGGREGATE” (INSTITUTE OF MICROBIOLOGY, CHINESE ACADEMY OF SCIENCES, priority 2017, published 2019).

For `CCCCCCCCCC(=O)CC(=O)N[C@H]1CCOC1=O` [C12-HSL, N-(3-oxododecanoyl)-L-homoserine lactone], the “effect on Psl production” value with Psl production in PAO1 is on record as “did increase Psl production in PAO1”. Further, in series [1], the “effect on psl transcription” value is given as “psl transcription was enhanced”.
Regarding `O=C(O)c1cn(C2CC2)c2cc(N3CCNCC3)c(F)cc2c1=O` [ciprofloxacin], the “MIC of ΔpaaP, fold lower than PAO1” value with ΔpaaP strain is 8 fold.

B1: P. aeruginosa aminopeptidase (PaAP) (protein)
chain: APSEAQQFTEFWTPGKPNPSICKSPLLVSTPLGLPRCLQASNVVKRLQKLEDIASLNDGNRAAATPGYQASVDYVKQTLQKAGYKVSVQPFPFTAYYPKGPGSLSATVPQPVTYEWEKDFTYLSQTEAGDVTAKVVPVDLSLGAGNTSTSGCEAEDFANFPAGSIALIQRGTCNFEQKAENAAAAGAAGVIIFNQGNTDDRKGLENVTVGESYEGGIPVIFATYDNGVAWSQTPDLQLHLVVDVVRKKTETYNVVAETRRGNPNNVVMVGAHLDSVFEGPGINDNGSGSAAQLEMAVLLAKALPVNKVRFAWWGAEEAGLVGSTHYVQNLAPEEKKKIKAYLNFDMIGSPNFGNFIYDGDGSDFGLQGPPGSAAIERLFEAYFRLRGQQSEGTEIDFRSDYAEFFNSGIAFGGLFTGAEGLKTEEQAQKYGGTAGKAYDECYHSKCDGIANINQDALEIHSDAMAFVTSWLSLSTKVVDDEIAAAGQKAQSRSLQMQKSASQIERWGHDFIK
On to B1, for which the “PaAP catalytic activity (hydrolysis of Leu-p-nitroanilide, 7 nM PaAP with 10, 20, 30 µM Amastatin or without)” value in series [2] was “the Amastatin may inhibit the enzyme activity of PaAP at micromolar concentrations, and the inhibition effect may increase with higher concentration of Amastatin”.

B2: PslG: glycosyl hydrolase of P. aeruginosa that degrades the Psl exopolysaccharide matrix; amino acid sequence SEQ ID NO: 6 (protein)
chain: EIQVLKAPRAVVWKDFLGVNAQFLWFSPERYNKQIDRLQDLGLEWVRLDLHWDRLETAEDQYQLASLDQLVKDLEARQLKSVFYLVGSARFITTAPFYSPFQDQYPPRDPEVFARRMAMLSQRYPSVAAWQVWNEPNLIGFWRPKADPEGYAKLLQASTIALRMVDPEKPVVSAGMAFFSEMPDGRTMFDALGHLGVESLGTIATYHPYTQLPEGNYPWNLDFVSHANQINRALRNAGVPAIWSTEWGWSAYKGPKELQDIIGVEGQADYVLRRLALMSALDYDRIFLFTLSDLDQRASVRDRDYGLLDLDANPKPVYLALQRFLKVTGPKLRPADPPVTEDLPDGSFSIGWTREDGRNVWLFWSARGGNVRLPKLKEATLHDPLSGKVTPLSGSDGLEVPVKSSLQMLVWE
Consider B2, for which the “dispersal of flocs in liquid culture” value is “can disperse the flocs of MJK8 and A1501 in liquid culture” in the series with MJK8; “can disperse the flocs of MJK8 and A1501 in liquid culture” in the series on A1501. Also, the “number of detected CFUs for treated biofilms” value in the series on PAO1 biofilms is “significantly greater than the number of detected CFUs for the biofilms treated by tissue homogenate, and the biofilms in the control group”. For the same molecule, the “elution profile of PslG-degraded Psl” value in series [3] was “showed a very similar profile as Psl extracted from the ΔpaaP biofilm”.
